Measured values published in PMC7677135 (Biophysical Journal, 2020).

Target: T1, PDK1 50–359 [Y288G,Q292A] (human, UniProt O15530 50-359, Y288G | Q292A)
T1 sequence (looked up): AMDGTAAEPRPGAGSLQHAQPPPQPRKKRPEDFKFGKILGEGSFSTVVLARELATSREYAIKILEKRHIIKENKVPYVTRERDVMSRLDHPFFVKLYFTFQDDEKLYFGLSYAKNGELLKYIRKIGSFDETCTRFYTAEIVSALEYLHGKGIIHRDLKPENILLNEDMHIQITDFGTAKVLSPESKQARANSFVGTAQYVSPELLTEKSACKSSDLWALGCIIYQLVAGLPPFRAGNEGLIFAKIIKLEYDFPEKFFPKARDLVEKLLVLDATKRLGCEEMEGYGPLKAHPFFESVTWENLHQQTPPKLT
Assay: HDX-MS

binding result: binds
Binder: REPRILSEEEQEMFRDFDYIADWC [PIFtide]
